Measurements taken from US20240261423A1 (Pfizer, published 2024).
Where a chain is given by its changes, count along the chain named. Names and notes keep the numbering of the source.

Biological target: EDB+FN (fibronectin containing the extra-domain B) on WI38-VA13 cells (human, UniProt P02751 32-2477)
Experiment: cell-based or functional assay

EDB+FN (fibronectin containing the extra-domain B) on WI38-VA13 cells, sequence (P02751 32-2477 limits assumed, form in doubt): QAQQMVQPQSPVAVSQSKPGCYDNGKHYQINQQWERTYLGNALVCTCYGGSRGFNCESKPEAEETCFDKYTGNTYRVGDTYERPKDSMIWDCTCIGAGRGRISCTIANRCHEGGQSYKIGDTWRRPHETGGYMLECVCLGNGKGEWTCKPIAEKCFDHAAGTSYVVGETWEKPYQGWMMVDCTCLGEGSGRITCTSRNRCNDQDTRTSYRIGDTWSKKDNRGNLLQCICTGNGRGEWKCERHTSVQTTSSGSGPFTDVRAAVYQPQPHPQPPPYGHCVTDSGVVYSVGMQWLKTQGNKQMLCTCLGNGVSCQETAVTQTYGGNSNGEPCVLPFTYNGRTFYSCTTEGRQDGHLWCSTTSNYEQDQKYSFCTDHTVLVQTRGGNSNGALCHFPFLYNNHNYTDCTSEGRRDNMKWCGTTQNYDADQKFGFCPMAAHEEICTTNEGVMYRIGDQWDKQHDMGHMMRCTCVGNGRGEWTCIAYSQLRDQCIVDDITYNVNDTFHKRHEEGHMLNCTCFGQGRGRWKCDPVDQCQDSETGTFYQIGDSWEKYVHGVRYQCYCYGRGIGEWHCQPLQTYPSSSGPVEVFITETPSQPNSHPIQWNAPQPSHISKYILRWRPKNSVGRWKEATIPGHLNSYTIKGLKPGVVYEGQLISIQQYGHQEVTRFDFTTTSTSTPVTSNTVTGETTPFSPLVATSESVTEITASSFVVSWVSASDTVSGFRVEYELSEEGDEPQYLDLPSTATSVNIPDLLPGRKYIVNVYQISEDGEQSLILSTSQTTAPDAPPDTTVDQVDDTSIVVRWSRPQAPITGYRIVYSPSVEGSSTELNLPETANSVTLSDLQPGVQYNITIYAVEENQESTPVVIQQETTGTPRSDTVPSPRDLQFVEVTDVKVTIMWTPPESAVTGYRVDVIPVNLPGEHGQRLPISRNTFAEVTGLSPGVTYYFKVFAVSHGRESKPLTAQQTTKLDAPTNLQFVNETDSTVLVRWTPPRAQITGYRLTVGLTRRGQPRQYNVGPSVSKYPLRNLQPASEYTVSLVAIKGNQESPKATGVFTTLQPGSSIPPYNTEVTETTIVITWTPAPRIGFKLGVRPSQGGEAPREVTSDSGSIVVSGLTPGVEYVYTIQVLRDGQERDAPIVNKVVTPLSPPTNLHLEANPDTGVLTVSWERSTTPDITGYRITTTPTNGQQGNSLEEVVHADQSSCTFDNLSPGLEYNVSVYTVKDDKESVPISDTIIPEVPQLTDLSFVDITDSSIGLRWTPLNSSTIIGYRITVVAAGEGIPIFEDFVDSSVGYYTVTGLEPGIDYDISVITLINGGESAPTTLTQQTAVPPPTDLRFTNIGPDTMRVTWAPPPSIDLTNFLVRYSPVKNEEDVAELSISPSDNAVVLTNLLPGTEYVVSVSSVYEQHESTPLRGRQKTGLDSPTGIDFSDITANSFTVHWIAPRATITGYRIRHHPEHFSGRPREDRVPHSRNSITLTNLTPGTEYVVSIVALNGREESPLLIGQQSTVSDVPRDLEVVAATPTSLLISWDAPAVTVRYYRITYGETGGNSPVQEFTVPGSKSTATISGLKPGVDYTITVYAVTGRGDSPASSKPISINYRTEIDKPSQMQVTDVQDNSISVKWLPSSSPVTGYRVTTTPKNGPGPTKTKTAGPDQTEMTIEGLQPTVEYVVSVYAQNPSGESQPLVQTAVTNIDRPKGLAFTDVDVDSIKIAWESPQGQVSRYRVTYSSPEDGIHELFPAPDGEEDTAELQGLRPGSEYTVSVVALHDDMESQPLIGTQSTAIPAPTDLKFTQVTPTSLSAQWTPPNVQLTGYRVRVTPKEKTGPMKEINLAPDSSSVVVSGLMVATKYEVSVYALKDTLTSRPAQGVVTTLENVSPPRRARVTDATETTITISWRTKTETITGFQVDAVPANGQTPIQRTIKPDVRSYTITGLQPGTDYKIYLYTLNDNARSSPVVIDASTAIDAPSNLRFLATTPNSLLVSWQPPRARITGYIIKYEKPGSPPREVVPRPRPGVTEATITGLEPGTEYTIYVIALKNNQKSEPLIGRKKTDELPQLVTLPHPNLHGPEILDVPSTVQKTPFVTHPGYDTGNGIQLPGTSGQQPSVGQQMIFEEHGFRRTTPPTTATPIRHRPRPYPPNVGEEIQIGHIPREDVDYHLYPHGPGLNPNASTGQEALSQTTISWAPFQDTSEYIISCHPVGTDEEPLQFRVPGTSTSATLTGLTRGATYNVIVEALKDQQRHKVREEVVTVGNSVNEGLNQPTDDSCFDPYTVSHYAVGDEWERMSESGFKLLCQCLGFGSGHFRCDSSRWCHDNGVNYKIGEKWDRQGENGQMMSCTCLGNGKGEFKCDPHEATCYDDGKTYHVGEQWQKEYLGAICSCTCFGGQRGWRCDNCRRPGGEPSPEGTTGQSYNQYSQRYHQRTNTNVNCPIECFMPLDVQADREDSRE

B1: EDB-(K94R)-vc-0101 (antibody, human IgG1, kappa)
heavy: not shown
light: EIVLTQSPGTLSLSPGERATLSCRASQSVSSSFLAWYQQKPGQAPRLLIYYASSRATGIPDRFSGSGSGTDFTLTISRLEPEDFAVYYCQQTGRIPPTFGQGTKVEIKRTVAAPSVFIFPPSDEQLKSGTASVVCLLNNFYPREAKVQWKVDNALQSGNSQESVTEQDSKDSTYSLSSTLTLSKADYEKHKVYACEVTHQGLSSPVTKSFNRGEC
modifications: vc-0101 linker-payload on cysteine residues (conventional conjugation, Method A); vc-0101 linker-payload on cysteine residues (conventional conjugation, Method A); average DAR 3.7 (LC/MS)
  Avg IC50, in vitro cytotoxicity on WI38-VA13 cells (Cell Titer Glo, 4 days): 184 ng/ml of antibody

B2: EDB-(κK183C-K94R-K290C)-vc-0101 (antibody, human IgG1, kappa)
heavy: not shown
light: B1 light with K184C
modifications: vc-0101 linker-payload on engineered Cys 183 (κK183C, Kabat), Method B; vc-0101 linker-payload on engineered Cys 290 (K290C, EU index), Method B; average DAR 3.8 (LC/MS)
  Avg IC50, in vitro cytotoxicity on WI38-VA13 cells (Cell Titer Glo, 4 days): 216 ng/ml of antibody
